This is an account of results in article PMC6555819, “Comprehensive study of nuclear receptor DNA binding provides a revised framework for understanding receptor specificity”.

Numbering of substitutions follows the chain as printed.

Sequences and labels used below:
B1: NRC3_wobSeed143_DR5_G12T_o1 (dsDNA)
DNA 1: GCAGAACGAGGTCACGCTGAGTTGATAGCAGAGTAGGCGATTGACAGCGTAGAATGAAGG
DNA 2: CCTTCATTCTACGCTGTCAATCGCCTACTCTGCTATCAACTCAGCGTGACCTCGTTCTGC
B2: NRC3_wobSeed75_DR3_A12T_o1 (dsDNA)
DNA 1: GCTCTCGGAGGTCACGAAGGTCAGAGCTTTCCAGAGGCGATTGACAGCGTAGAATGAAGG
DNA 2: CCTTCATTCTACGCTGTCAATCGCCTCTGGAAAGCTCTGACCTTCGTGACCTCCGAGAGC
B3: NRC3_random_hg19_102_o1 (dsDNA)
DNA 1: GCCAGATGAAATGACCAGGCTGTTACCAGGGTCTATGCGATTGACAGCGTAGAATGAAGG
DNA 2: CCTTCATTCTACGCTGTCAATCGCATAGACCCTGGTAACAGCCTGGTCATTTCATCTGGC
B4: NRC3_random_hg19_28_o1 (dsDNA)
DNA 1: GCCATCTAAAGCCTTGACAGGCTGGGATAGCTGCTTGCGATTGACAGCGTAGAATGAAGG
DNA 2: CCTTCATTCTACGCTGTCAATCGCAAGCAGCTATCCCAGCCTGTCAAGGCTTTAGATGGC
B5: NRC3_wobSeed13_DR0_A14T_o1 (dsDNA)
DNA 1: GCCGTCCAAGGTCTAGGTCAGTGAAAGAGACTCGAAGCGATTGACAGCGTAGAATGAAGG
DNA 2: CCTTCATTCTACGCTGTCAATCGCTTCGAGTCTCTTTCACTGACCTAGACCTTGGACGGC
B6: NRC3_wobSeed119_DR4_G12T_o1 (dsDNA)
DNA 1: GCGGAACGAGGTCATTCGAGTTGATAGCATGGCGATGCGATTGACAGCGTAGAATGAAGG
DNA 2: CCTTCATTCTACGCTGTCAATCGCATCGCCATGCTATCAACTCGAATGACCTCGTTCCGC
B7: NRC3_wobSeed113_DR4_T13C_o1 (dsDNA)
DNA 1: GCATATGTAGGTCAGCTGGGGTCATTCAGACTAGGCGCGATTGACAGCGTAGAATGAAGG
DNA 2: CCTTCATTCTACGCTGTCAATCGCGCCTAGTCTGAATGACCCCAGCTGACCTACATATGC
B8: NRC3_wobSeed95_DR3_G22C_o1 (dsDNA)
DNA 1: GCAGAACGAGGGCAATGAGTTCATAGCACGGGTGGCGCGATTGACAGCGTAGAATGAAGG
DNA 2: CCTTCATTCTACGCTGTCAATCGCGCCACCCGTGCTATGAACTCATTGCCCTCGTTCTGC
B9: NRC3_wobSeed137_DR5_C19G_o1 (dsDNA)
DNA 1: GCATATGTAGGTTACATCGGGGTCATTCAGGCTATGGCGATTGACAGCGTAGAATGAAGG
DNA 2: CCTTCATTCTACGCTGTCAATCGCCATAGCCTGAATGACCCCGATGTAACCTACATATGC
B10: NRC3_wobSeed121_DR5_A19G_o1 (dsDNA)
DNA 1: GCCAAACTAGGTCACCGGGAGGTCAAAGTCCGCATGGCGATTGACAGCGTAGAATGAAGG
DNA 2: CCTTCATTCTACGCTGTCAATCGCCATGCGGACTTTGACCTCCCGGTGACCTAGTTTGGC
B11: NRC3_wobSeed37_DR1_A8G_o1 (dsDNA)
DNA 1: GCCGTCCGAGGTCAAAGGTCAGTGAAGAGATGACGGGCGATTGACAGCGTAGAATGAAGG
DNA 2: CCTTCATTCTACGCTGTCAATCGCCCGTCATCTCTTCACTGACCTTTGACCTCGGACGGC
B12: NRC3_wobSeed109_DR4_G21T_o1 (dsDNA)
DNA 1: GCCGTCCAAGGTCATAGGAGTTCAGTGAAGACAGATGCGATTGACAGCGTAGAATGAAGG
DNA 2: CCTTCATTCTACGCTGTCAATCGCATCTGTCTTCACTGAACTCCTATGACCTTGGACGGC
B13: NRC3_wobSeed109_DR4_G17C_o1 (dsDNA)
DNA 1: B12 DNA 1 with G17C, T21G
DNA 2: B12 DNA 2 with A40C, C44G
B14: NRC3_wobSeed120_DR4_T13C_o1 (dsDNA)
DNA 1: GCCCGAGTAGGTCACGAGGGGGCATTCAGTGCGAATGCGATTGACAGCGTAGAATGAAGG
DNA 2: CCTTCATTCTACGCTGTCAATCGCATTCGCACTGAATGCCCCCTCGTGACCTACTCGGGC
B15: NRC3_wobSeed89_DR3_G16C_o1 (dsDNA)
DNA 1: GCCTATGTAGGTTAACGGGGTCATTCAGTTTGAAAGGCGATTGACAGCGTAGAATGAAGG
DNA 2: CCTTCATTCTACGCTGTCAATCGCCTTTCAAACTGAATGACCCCGTTAACCTACATAGGC
B16: NRC3_wobSeed34_DR1_G6A_o1 (dsDNA)
DNA 1: GCATCAAAAGGTCGAAGGTGAGTATACCCACCCGAAGCGATTGACAGCGTAGAATGAAGG
DNA 2: CCTTCATTCTACGCTGTCAATCGCTTCGGGTGGGTATACTCACCTTCGACCTTTTGATGC
B17: NRC3_wobSeed85_DR3_G24C_o1 (dsDNA)
DNA 1: GCCGTCCAAGGTCAGAGAGGTCACTGAATGCCGAGTGCGATTGACAGCGTAGAATGAAGG
DNA 2: CCTTCATTCTACGCTGTCAATCGCACTCGGCATTCAGTGACCTCTCTGACCTTGGACGGC
B18: NRC3_random_hg19_344_o1 (dsDNA)
DNA 1: GCCGGAAGAGAATTCTTGCCTGCCCACTGGTAGAATGCGATTGACAGCGTAGAATGAAGG
DNA 2: CCTTCATTCTACGCTGTCAATCGCATTCTACCAGTGGGCAGGCAAGAATTCTCTTCCGGC
B19: NRC3_random_hg19_464_o1 (dsDNA)
DNA 1: GCAGAACCTCATTGCTTATCGCACAGATGAGATGCGGCGATTGACAGCGTAGAATGAAGG
DNA 2: CCTTCATTCTACGCTGTCAATCGCCGCATCTCATCTGTGCGATAAGCAATGAGGTTCTGC

Chain of VDR:RXRa (P11473 whole entry, chain 1 of 2): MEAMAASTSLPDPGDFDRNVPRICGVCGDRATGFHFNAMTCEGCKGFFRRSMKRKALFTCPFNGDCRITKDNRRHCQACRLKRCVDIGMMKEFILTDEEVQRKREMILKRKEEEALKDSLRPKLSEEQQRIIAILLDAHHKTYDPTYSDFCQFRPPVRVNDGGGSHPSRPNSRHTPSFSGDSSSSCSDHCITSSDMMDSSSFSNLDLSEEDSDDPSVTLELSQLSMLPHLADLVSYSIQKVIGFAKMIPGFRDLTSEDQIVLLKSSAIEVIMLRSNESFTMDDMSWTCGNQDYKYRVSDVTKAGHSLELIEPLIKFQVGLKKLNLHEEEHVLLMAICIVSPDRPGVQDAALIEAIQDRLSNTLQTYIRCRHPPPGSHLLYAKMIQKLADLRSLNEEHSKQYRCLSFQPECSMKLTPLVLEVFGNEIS
Chain of VDR:RXRa (P19793 whole entry, chain 2 of 2): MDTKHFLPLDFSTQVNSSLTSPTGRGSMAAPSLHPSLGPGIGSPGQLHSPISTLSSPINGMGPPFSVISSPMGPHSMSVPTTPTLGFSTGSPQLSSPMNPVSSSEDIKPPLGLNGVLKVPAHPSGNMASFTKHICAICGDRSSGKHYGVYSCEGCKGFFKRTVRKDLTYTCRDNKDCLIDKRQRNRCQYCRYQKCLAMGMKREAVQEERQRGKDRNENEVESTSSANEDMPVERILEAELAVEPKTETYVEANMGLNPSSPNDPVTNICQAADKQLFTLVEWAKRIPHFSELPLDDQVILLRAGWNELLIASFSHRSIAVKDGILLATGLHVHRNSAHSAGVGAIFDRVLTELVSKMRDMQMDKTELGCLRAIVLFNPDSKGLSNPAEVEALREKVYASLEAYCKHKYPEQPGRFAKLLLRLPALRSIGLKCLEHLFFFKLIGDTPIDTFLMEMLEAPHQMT
Chain of RARg:RXRa (P13631 whole entry, chain 1 of 2): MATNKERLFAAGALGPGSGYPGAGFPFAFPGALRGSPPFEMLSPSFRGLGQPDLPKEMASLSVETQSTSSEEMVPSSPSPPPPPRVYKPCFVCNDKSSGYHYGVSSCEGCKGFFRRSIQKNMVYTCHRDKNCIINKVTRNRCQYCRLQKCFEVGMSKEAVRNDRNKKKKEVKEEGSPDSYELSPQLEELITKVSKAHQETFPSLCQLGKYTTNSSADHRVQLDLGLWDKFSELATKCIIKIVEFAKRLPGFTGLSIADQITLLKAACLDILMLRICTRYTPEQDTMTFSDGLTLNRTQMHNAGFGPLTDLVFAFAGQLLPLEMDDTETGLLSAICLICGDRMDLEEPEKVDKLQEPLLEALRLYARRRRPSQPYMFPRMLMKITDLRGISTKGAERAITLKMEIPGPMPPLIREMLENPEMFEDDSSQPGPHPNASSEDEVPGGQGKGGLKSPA
Chain of RARg:RXRa (P19793 whole entry, chain 2 of 2): as the sequence (P19793 whole entry, chain 2 of 2) above
Chain of PXR:RXRa (O75469 whole entry, chain 1 of 2): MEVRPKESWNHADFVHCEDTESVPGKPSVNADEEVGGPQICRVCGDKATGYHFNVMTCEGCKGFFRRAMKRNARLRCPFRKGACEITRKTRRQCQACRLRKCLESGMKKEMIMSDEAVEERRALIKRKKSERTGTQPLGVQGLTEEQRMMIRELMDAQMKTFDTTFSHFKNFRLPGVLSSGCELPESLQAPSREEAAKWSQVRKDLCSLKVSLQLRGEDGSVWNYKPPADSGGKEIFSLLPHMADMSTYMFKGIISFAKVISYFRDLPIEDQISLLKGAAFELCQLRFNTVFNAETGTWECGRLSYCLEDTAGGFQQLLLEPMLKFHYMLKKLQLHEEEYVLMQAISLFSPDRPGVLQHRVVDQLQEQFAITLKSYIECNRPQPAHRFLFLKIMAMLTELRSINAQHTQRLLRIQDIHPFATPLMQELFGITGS
Chain of PXR:RXRa (P19793 whole entry, chain 2 of 2): as the sequence (P19793 whole entry, chain 2 of 2) above
Chain of RXRa (P19793 whole entry): as the sequence (P19793 whole entry, chain 2 of 2) above
Chain of LXRb:RXRa (P55055 whole entry, chain 1 of 2): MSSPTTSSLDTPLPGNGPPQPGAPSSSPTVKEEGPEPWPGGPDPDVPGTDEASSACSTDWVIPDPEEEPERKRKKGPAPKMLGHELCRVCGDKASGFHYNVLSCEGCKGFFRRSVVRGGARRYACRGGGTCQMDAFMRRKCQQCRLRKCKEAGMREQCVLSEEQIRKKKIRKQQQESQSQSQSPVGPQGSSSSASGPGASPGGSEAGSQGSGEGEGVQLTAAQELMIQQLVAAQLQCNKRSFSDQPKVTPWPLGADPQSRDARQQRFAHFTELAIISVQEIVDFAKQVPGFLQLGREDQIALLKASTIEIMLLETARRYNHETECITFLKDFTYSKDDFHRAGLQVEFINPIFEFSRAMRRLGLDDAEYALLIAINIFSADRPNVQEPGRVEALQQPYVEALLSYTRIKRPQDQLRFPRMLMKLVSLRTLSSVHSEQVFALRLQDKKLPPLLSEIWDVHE
Chain of LXRb:RXRa (P19793 whole entry, chain 2 of 2): as the sequence (P19793 whole entry, chain 2 of 2) above
Chain of PPARa:RXRa (Q07869 whole entry, chain 1 of 2): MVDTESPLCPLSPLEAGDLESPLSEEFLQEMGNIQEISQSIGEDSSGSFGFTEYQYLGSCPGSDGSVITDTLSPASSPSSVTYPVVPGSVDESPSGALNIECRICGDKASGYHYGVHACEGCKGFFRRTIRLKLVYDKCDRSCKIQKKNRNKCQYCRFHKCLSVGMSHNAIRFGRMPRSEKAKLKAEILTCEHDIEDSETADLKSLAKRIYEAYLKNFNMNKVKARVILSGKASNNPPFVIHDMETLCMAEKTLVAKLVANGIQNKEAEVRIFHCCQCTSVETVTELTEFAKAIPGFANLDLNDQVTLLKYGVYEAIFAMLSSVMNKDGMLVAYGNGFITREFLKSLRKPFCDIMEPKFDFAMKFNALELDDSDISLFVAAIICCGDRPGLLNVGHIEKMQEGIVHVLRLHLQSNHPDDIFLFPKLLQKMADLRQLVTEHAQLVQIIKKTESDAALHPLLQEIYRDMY
Chain of PPARa:RXRa (P19793 whole entry, chain 2 of 2): as the sequence (P19793 whole entry, chain 2 of 2) above

For one data set, the target named is RARb:RXRa (Homo sapiens, UniProt P10826;P19793 full;full). The experiment in a line: no ligand; PBM; 270 nM : 90 nM RXRa; PBS pH 7.4, 2% milk, 0.02% Triton X-100, 1 mM DTT, BSA, 0.4 mg/ml salmon testes DNA. As to conditions: tags: His kept;His cleaved; copies: 1;1; label: surface-attached array probe. The procedure, abridged: (§1)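 Custom Agilent 4×180K protein-binding microarrays carried double-stranded probes. Their 34-nt variable regions held direct-repeat seeds, single-nucleotide variants, half-site ablations and random human genomic background sequences. Arrays were incubated 1 h with ligand-free nuclear receptor dimers in PBS pH 7.4, 2% milk, 0.02% Triton X-100, 1 mM DTT, 0.2 mg/mL BSA and 0.4 mg/ml salmon testes DNA. Antibodies against each partner (one per run) detected binding, and scanned fluorescence was regression-normalized. Binding z-scores use random background probes as reference.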
Chain of RARb:RXRa (P10826 whole entry, chain 1 of 2): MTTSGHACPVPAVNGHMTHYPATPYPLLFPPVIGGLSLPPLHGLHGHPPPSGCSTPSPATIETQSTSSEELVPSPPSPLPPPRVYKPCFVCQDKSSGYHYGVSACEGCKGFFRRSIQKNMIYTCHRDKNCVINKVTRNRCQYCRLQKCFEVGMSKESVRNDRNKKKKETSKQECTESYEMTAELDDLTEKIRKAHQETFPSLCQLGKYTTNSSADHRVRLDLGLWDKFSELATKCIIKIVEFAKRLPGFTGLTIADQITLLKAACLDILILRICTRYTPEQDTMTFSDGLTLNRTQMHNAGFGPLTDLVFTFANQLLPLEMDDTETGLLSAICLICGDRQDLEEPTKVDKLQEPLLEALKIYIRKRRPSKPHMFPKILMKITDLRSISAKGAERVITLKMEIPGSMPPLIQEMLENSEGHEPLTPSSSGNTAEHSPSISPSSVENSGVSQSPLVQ
Chain of RARb:RXRa (P19793 whole entry, chain 2 of 2): as the sequence (P19793 whole entry, chain 2 of 2) above
On to B1, for which the binding signal is 5.54 PBM z-score against 500 random probes.

Turning to B2, the binding signal is 5.84 PBM z-score against 500 random probes.

A further data set concerns the target RARg:RXRa (Homo sapiens, UniProt P13631;P19793 full;full). The data set is described as above. The note with it: tags: His kept;His cleaved; copies: 1;1; label: surface-attached array probe. In outline: as §1
With B3, the binding signal is 0.17 PBM z-score against 500 random probes.

With B1, the binding signal is 7.45 PBM z-score against 500 random probes.

As for B2, the binding signal is 7.62 PBM z-score against 500 random probes.

Another data set has as its target LXRb:RXRa (Homo sapiens, UniProt P55055;P19793 full;full). The description is as above. The note with it: tags: His kept;His cleaved; copies: 1;1; label: surface-attached array probe. In outline: as §1
As for B4, the binding signal is -1 PBM z-score against 500 random probes.

For B5, the binding signal was 0.12 PBM z-score against 500 random probes.

The target in another data set is VDR:RXRa (Homo sapiens, UniProt P11473;P19793 full;full). The description is as above. As to conditions: tags: His kept;His cleaved; copies: 1;1; label: surface-attached array probe. In outline:
as §1
As to B6, the binding signal is 6.76 PBM z-score against 500 random probes.

Take B7: the binding signal was 7.24 PBM z-score against 500 random probes.

As for B8, the binding signal is 8.01 PBM z-score against 500 random probes.

As for B9, the binding signal is 6.54 PBM z-score against 500 random probes.

Take B10: the binding signal was 6.81 PBM z-score against 500 random probes.

Take B11: the binding signal was 7.2 PBM z-score against 500 random probes.

As for B12, the binding signal was 7.28 PBM z-score against 500 random probes.

In the case of B13, the binding signal was 7.31 PBM z-score against 500 random probes.

Turning to B14, the binding signal was 7.01 PBM z-score against 500 random probes.

Consider B1, for which the binding signal is 6.66 PBM z-score against 500 random probes.

For the molecule B2, the binding signal is 7.51 PBM z-score against 500 random probes.

With B15, the binding signal was 8.07 PBM z-score against 500 random probes.

Consider B16, for which the binding signal was 3.23 PBM z-score against 500 random probes.

Turning to B17, the binding signal is 7.9 PBM z-score against 500 random probes.

The next data set has as its target PXR:RXRa (Homo sapiens, UniProt O75469;P19793 full;full). Described as above. As to conditions: tags: His kept;His cleaved; copies: 1;1; label: surface-attached array probe. The procedure, abridged:
as §1
For the molecule B18, the binding signal is -0.71 PBM z-score against 500 random probes.

For the molecule B6, the binding signal is 6.69 PBM z-score against 500 random probes.

For the molecule B19, the binding signal was -0.05 PBM z-score against 500 random probes.

As to B4, the binding signal was -0.65 PBM z-score against 500 random probes.

For B7, the binding signal is 7.5 PBM z-score against 500 random probes.

With B8, the binding signal is 7.08 PBM z-score against 500 random probes.

On to B9, for which the binding signal was 6.55 PBM z-score against 500 random probes.

Regarding B10, the binding signal is 6.61 PBM z-score against 500 random probes.

With B3, the binding signal is -0.16 PBM z-score against 500 random probes.

Turning to B11, the binding signal was 7.4 PBM z-score against 500 random probes.

Take B12: the binding signal was 7.41 PBM z-score against 500 random probes.

As to B13, the binding signal was 7.4 PBM z-score against 500 random probes.

For B5, the binding signal is 0.19 PBM z-score against 500 random probes.

On to B14, for which the binding signal is 6.39 PBM z-score against 500 random probes.

With B1, the binding signal is 6.45 PBM z-score against 500 random probes.

On to B2, for which the binding signal is 6.46 PBM z-score against 500 random probes.

Regarding B15, the binding signal was 6.67 PBM z-score against 500 random probes.

As for B16, the binding signal is 3.15 PBM z-score against 500 random probes.

As to B17, the binding signal is 6.76 PBM z-score against 500 random probes.

Another data set deals with FXR:RXRa (Homo sapiens, UniProt Q96RI1;P19793 full;full). The data set is described as above. As to conditions: tags: His kept;His cleaved; copies: 1;1; label: surface-attached array probe. The procedure, abridged: as §1
Chain of FXR:RXRa (Q96RI1 whole entry, chain 1 of 2): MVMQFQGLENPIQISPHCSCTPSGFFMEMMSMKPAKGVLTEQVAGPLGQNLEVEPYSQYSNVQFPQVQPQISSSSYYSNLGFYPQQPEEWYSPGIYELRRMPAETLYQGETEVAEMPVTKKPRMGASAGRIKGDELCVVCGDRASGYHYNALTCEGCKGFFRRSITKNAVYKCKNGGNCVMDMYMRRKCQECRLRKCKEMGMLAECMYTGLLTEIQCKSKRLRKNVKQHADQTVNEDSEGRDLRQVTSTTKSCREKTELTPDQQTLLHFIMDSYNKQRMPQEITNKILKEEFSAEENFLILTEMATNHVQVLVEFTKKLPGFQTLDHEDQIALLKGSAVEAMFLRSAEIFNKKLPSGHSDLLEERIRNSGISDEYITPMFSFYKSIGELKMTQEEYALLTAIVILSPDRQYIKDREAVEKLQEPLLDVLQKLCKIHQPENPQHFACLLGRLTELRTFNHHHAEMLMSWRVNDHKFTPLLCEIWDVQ
Chain of FXR:RXRa (P19793 whole entry, chain 2 of 2): as the sequence (P19793 whole entry, chain 2 of 2) above
As for B6, the binding signal was 7.77 PBM z-score against 500 random probes.

B1: the binding signal is 8.27 PBM z-score against 500 random probes.

For the next data set, the target named is PPARa:RXRa (Homo sapiens, UniProt Q07869;P19793 full;full). The data set is described as above. The note with it: tags: GST kept;His cleaved; copies: 1;1; label: surface-attached array probe. In outline:
as §1
B19: the binding signal was -0.25 PBM z-score against 500 random probes.

A further data set concerns the target RXRa (Homo sapiens, UniProt P19793). Description: no ligand; PBM; 180 nM; PBS pH 7.4, 2% milk, 0.02% Triton X-100, 1 mM DTT, BSA, 0.4 mg/ml salmon testes DNA. The note with it: tags: His cleaved; chain copies: 2; label: surface-attached array probe.
Regarding B18, the binding signal was -0.83 PBM z-score against 500 random probes.

B19: the binding signal is 0.3 PBM z-score against 500 random probes.

With B3, the binding signal was 0.48 PBM z-score against 500 random probes.

Turning to B1, the binding signal was 8.4 PBM z-score against 500 random probes.

On to B2, for which the binding signal is 8.41 PBM z-score against 500 random probes.
